Reference: US20130115166A1 (CEPHALON AUSTRALIA, published 2013)
Changes are numbered by the printed parent chain.

Biological target: T1, IL-23 (HEK293E-derived) (human, UniProt P29460 23-328; Q9NPF7 20-189)
T1 sequence 1: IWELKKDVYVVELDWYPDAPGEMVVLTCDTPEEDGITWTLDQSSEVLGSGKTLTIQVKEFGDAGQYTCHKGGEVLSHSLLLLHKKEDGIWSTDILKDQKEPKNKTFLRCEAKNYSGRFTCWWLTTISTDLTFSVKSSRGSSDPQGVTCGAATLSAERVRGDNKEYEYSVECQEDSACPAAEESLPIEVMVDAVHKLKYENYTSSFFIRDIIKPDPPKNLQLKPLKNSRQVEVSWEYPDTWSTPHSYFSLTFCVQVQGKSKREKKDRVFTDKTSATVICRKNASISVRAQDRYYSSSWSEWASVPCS
T1 sequence 2: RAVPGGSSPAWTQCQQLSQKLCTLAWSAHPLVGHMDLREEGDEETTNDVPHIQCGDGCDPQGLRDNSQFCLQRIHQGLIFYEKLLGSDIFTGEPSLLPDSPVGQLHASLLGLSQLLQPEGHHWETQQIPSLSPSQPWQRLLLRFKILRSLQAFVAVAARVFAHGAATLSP
Test: SPR (Biacore), antibody supernatant captured on Protein A, IL-23 at 5 ug/ml as analyte
Procedure: As a result of the humanization processes 22 humanized antibodies were produced and tested for their ability to bind human IL-23 (Table 4). Briefly, 2 mL transfections of the 22 humanized antibodies were screened for antibody expression level and binding activity via SPR. Protein A was immobilized onto FC1 and FC2 (or alternatively FC3 and FC4) of a CM5 research grade sensor chip using amine coupling, giving approximately 3000 RU. FC1 was used as a blank throughout the experiments. The experiments were run in HBS-P buffer (SPR). Antibody-containing cell culture supernatants were diluted in 10× HBS-P buffer at a ratio of 9:1. The diluted antibody was injected over FC2 at a flow rate of 20 μl/min. IL-23 (HEK293E-derived) was passed over the surface of FC1 and FC2 at a concentrations of 5 μg/ml as a kinetic injection with 5 min dissociation time across both
FC. Regeneration of the surface was performed using 10 mM Glycine, pH 1.5. The sensorgram data from FC2 were subtracted from FC1 and a buffer only control. […] The Sequence IDs of the variable heavy and light chains for each antibody are given in the Table 4 along with kd (off-rates) of selected tested antibodies.

B1: 18-4 (antibody, human IgG1, kappa, V domains shown)
VH: EVQLQQWGAGLLKPSETLSLTCAVYGGSFSSYNVHWIRQPPGKGLEWIGVIWTGGSTDYNSVLKSRVTISVDTSKNQFSLKLSSVTAADTAVYYCARDKYGLFPGYFDYWGQGTLVTVSS
VL: EIVLTQSPATLSLSPGERATLSCKPSQSLLSSGNRKNYLAWYQQKPGQAPRLLIYYASTRQSGIPDRFSGSGSGTDFTLTISRLEPEDFAVYYCLQHFNYPWTFGGGTKVEIKR
notes: Humanized form of E11E7; also called humanized antibody 18-4
- koff: 0.00133 s⁻¹

B2: 16-12 (antibody, human IgG1, kappa, V domains shown)
VH: QVQLQESGPGLVKPSQTLSLTCTVSGFSLISYNVHWIRQPPGKGLEWIGVIWTGGSTDYNSVLKSRVTMSRDTSKNQFSLKVNSVTAADTAVYYCARDKYGLFPGYFDYWGQGTLVTVSS
VL: B1 VL with L4M, D66A, R83S, V110A
notes: Humanized form of E11E7; also called humanized antibody 16-12
- koff: 0.000224 s⁻¹

B3: 15-12 (antibody, human IgG1, kappa, V domains shown)
VH: B2 VH with F27G, L29I, I30S, R71V
VL: B1 VL with L4M, D66A, R83S, V110A
notes: Humanized form of E11E7; also called humanized antibody 15-12
- koff: 0.006 s⁻¹

B4: 14-12 (antibody, human IgG1, kappa, V domains shown)
VH: B2 VH with F27G, L29I, I30S
VL: B1 VL with L4M, D66A, R83S, V110A
notes: Humanized form of E11E7; also called humanized antibody 14-12
- koff: 0.00349 s⁻¹

B5: 13-12 (antibody, human IgG1, kappa, V domains shown)
VH: B2 VH with R71V
VL: B1 VL with L4M, D66A, R83S, V110A
notes: Humanized form of E11E7; also called humanized antibody 13-12
- koff: 0.000855 s⁻¹

B6: 11-23 (antibody, human IgG1, kappa, V domains shown)
VH: B2 VH with Q16E, F27G, L29I, I30S, S61P, V62S, M69I, V82L, N83S
VL: DIVMTQTPLSLPVTPGEPASISCKPSQSLLSSGNRKNYLAWYLQKPGQSPQLLIYYASTRQSGVPDRFSGSGSGTDFTLKISRVEAEDVGVYYCLQHFNYPWTFGQGTKLEIKR
notes: Humanized form of E11E7; also called humanized antibody 11-23
- koff: 0.00462 s⁻¹

B7: 11-22 (antibody, human IgG1, kappa, V domains shown)
VH: B2 VH with Q16E, F27G, L29I, I30S, S61P, V62S, M69I, V82L, N83S
VL: DIVMTQSPDSLAVSLGERATINCKPSQSLLSSGNRKNYLAWYQQKPGQPPKLLIYYASTRQSGVPDRFSGSGSGTDFTLTISSLQAEDVAVYYCLQHFNYPWTFGQGTKLEIKR
notes: Humanized form of E11E7; also called humanized antibody 11-22
- koff: 0.00121 s⁻¹

B8: 8-23 (antibody, human IgG1, kappa, V domains shown)
VH: B2 VH with Q16E, S61P, V62S, M69I, V82L, N83S
VL: B6 VL
notes: Humanized form of E11E7; also called humanized antibody 8-23
- koff: 0.000285 s⁻¹

B9: 9-23 (antibody, human IgG1, kappa, V domains shown)
VH: B2 VH with Q16E, S61P, V62S, M69I, R71V, V82L, N83S
VL: B6 VL
notes: Humanized form of E11E7; also called humanized antibody 9-23
- koff: 0.00056 s⁻¹

B10: 5-22 (antibody, human IgG1, kappa, V domains shown)
VH: B2 VH with Q16E, F27G, L29I, S61P, V62S, M69I, V82L, N83S
VL: B7 VL
notes: Humanized form of E11E7; also called humanized antibody 5-22
- koff: 0.00198 s⁻¹

B11: 7-23 (antibody, human IgG1, kappa, V domains shown)
VH: B2 VH with Q16E, F27G, I30S, S61P, V62S, M69I, V82L, N83S
VL: B6 VL
notes: Humanized form of E11E7; also called humanized antibody 7-23
- koff: 0.00391 s⁻¹

B12: 6-23 (antibody, human IgG1, kappa, V domains shown)
VH: B2 VH with Q16E, L29I, I30S, S61P, V62S, M69I, V82L, N83S
VL: B6 VL
notes: Humanized form of E11E7; also called humanized antibody 6-23
- koff: 0.000566 s⁻¹

B13: 7-22 (antibody, human IgG1, kappa, V domains shown)
VH: B2 VH with Q16E, F27G, I30S, S61P, V62S, M69I, V82L, N83S
VL: B7 VL
notes: Humanized form of E11E7; also called humanized antibody 7-22
- koff: 0.00102 s⁻¹

B14: 9-22 (antibody, human IgG1, kappa, V domains shown)
VH: B2 VH with Q16E, S61P, V62S, M69I, R71V, V82L, N83S
VL: B7 VL
notes: Humanized form of E11E7; also called humanized antibody 9-22
- koff: 0.000198 s⁻¹

B15: 5-23 (antibody, human IgG1, kappa, V domains shown)
VH: B2 VH with Q16E, F27G, L29I, S61P, V62S, M69I, V82L, N83S
VL: B6 VL
notes: Humanized form of E11E7; also called humanized antibody 5-23
- koff: 0.00639 s⁻¹

B16: 10-23 (antibody, human IgG1, kappa, V domains shown)
VH: B1 VH with E1Q, Q6E, W7S, A9P, L12V, A23T, Y25S, F29I, S61P, V62S
VL: B6 VL
notes: Humanized form of E11E7; also called humanized antibody 10-23
- koff: 0.013 s⁻¹
